“Also recorded” adds a separate entry of the source.
Tests used:
Type in all cases: cell-based, human
PEC derived from hESC = assay: Flow cytometry analysis of PEC derived from hESC (CHGA, NKX6.1, PDX1 sub-populations)
Procedure: (§1) So, Activin levels less than about 25 ng/mL are acceptable for maintaining cell mass and yield. Applicant then performed flow cytometry analysis on these cell cultures to determine whether Activin at low levels during stages 3 and 4 had any effect on cell aggregate composition; see Table 14. […] Advantageously, the PDX1 only and Triple Negative sub-populations are reduced as compared to the control, particularly when Activin is used in stages 3 and 4.
To determine the cell composition of the PEC population with the combination of Activin, Heregulin and Wnt during stage 3, flow cytometry was performed after stage 4 and the PEC cellular composition is shown in Table 14. […] Data from flow cytometry supports and is consistent with data from QPCR that the combination of the three factors (AHW) in general delayed or suppressed differentiation of cells committed to the endocrine lineage (CHGA+) in PEC without affecting the production of the non-endocrine (CHGA−) sub-population. The delayed expression of these genes in vitro is consistent with their on-set (or delay) in in vivo mammalian pancreatic development, whereby NGN3 expression in endocrine differentiation occurs after the on-set of PDX1 and NKX6.1 expression in the non-endocrine (CHGA−) sub-population. Additionally, there was no compromise in the PEC mass and yield. […]
Undifferentiated human ESC were expanded and differentiated substantially as described above in Table 17 Protocol #1 for stages 1-4 and in Schulz et al. (2012) supra, except that during the three (3) days of stage 3, 4 different conditions were compared: (i) 0 noggin (“no noggin”) for all 3 days; (ii) 1 day of Noggin at 50 ng/mL and 2 days with no additional Noggin; (iii) 2 days of Noggin at 50 ng/mL and 1 day with no additional noggin; and (iv) 3 days of Noggin at 50 ng/mL. After stage 3, each of these conditions (i) through (iv) then received the standard stage 4 differentiation media cocktail according to Table 8 and Table 17, but without additional Noggin. […] Moreover, with each additional day of noggin treatment, fewer non-endocrine multipotent pancreatic progenitor sub-populations were produced (compare 90.6% with no noggin to 64.6% with 3 days of noggin treatment).

[1] = test system: NGN3, NKX2.2, NKX6.1, PDX1 expression; assay: Quantitative PCR of relative gene expression in PEC cultures (NGN3, NKX2.2, NKX6.1, PDX1)
Procedure: The progression of pluripotent cells to various multipotent and/or differentiated cells can be monitored by determining the relative expression of genes, or gene markers, characteristic of a specific cell, as compared to the expression of a second or control gene, e.g., housekeeping genes. In some processes, the expression of certain markers is determined by detecting the presence or absence of the marker. Alternatively, the expression of certain markers can be determined by measuring the level at which the marker is present in the cells of the cell culture or cell population. In such processes, the measurement of marker expression can be qualitative or quantitative. One method of quantitating the expression of markers that are produced by marker genes is through the use of quantitative PCR (Q-PCR). Methods of performing Q-PCR are well known in the art. Other methods which are known in the art can also be used to quantitate marker gene expression. For example, the expression of a marker gene product can be detected by using antibodies specific for the marker gene product of interest.
(§2) Various growth factors were explored for their ability to suppress genes such as NGN3 during stages 3 and 4. One candidate growth factor was Activin which has diverse functions in stem cell expansion and differentiation. For example, at low levels (e.g. 10 ng/mL), Activin helps maintain pluripotent stem cell pluripotency and cell proliferation. At higher levels (e.g. 100 ng/mL) Activin acts as a differentiation growth factor responsible for definitive endoderm production at stage 1 (see e.g., Table 8). To test its effect on repressing cells committed to the endocrine lineage (CHGA+) during PEC formation, Applicant first tested Activin at a mid-level concentration of about 50 ng/mL with standard adherent differentiation.
Quantitative PCR analysis was performed to determine the relative levels of gene expression at days 8, 10 and 12 of differentiation with the above combinations of Activin and Heregulin (FIG. 13). […]

[2] = test system: hES-derived cell aggregates; assay: Cell aggregate size / cell mass in suspension culture (imaging)
Procedure: Preliminary studies were performed using Heregulin and FGF. In certain of these studies, Rho-kinase inhibitor, Y-27632, was included. […] An increase in cell aggregate size is advantageous in that it results in higher cell mass for later implantation and testing for function in animals.
as §2, §1
Pluripotent stem cells were differentiated using the standard protocol according to Table 8, except during stage 3, Activin was included at 10 ng/mL or 20 ng/mL in combination with Heregulin at 2 ng/mL or 10 ng/mL; and during stage 4, Activin was reduced to 5 ng/mL with Heregulin at 1 ng/mL for two days then at 10 ng/mL thereafter. […] Increasing Activin to 20 ng/mL with Heregulin remaining the same at 2 ng/mL exacerbated the cell loss (compare FIGS. 12B and 12C, top panel). […]

[3] = test system: INS, GCG, SST, GHRL, PDX1, NKX6.1, NGN3, ID1 expression; assay: Nanostring mRNA analysis of endocrine cell cultures
[4] = N50-1day: Noggin 50 ng/mL for 1 day of stage 3, after stage 4
[5] = N50-2day: Noggin 50 ng/mL for 2 days of stage 3, after stage 4
[6] = N50-3d: Noggin 50 ng/mL for 3 days of stage 3, after stage 4
[7] = A5 Stg3&4: 5 ng/mL Activin at stages 3 and 4
[8] = A5 Stg3: 5 ng/mL Activin at stage 3
[9] = A10 Stg3: 10 ng/mL Activin at stage 3

B1: noggin: protein that inactivates TGFβ superfamily signaling proteins such as BMP4 (protein, UniProt Q13253 28-232, looked up)
Noggin: QHYLHIRPAPSDNLPLVDLIEHPDPIFDPKEKDLNETLLRSLLGGHYDPGFMATSPPEDRPGGGGGAAGGAEDLAELDQLLRQRPSGAMPSEIKGLEFSEGLAQGKKQRLSKKLRRKLQMWLWSQTFCPVLYAWNDLGSRFWPRYVKVGSCFSKRSCSVPEGMVCKPSKSVHLTVLRWRCQRRGGQRCGWIPIQYPIISECKCSC
- non-endocrine multipotent pancreatic progenitor sub-population (PEC derived from hESC; 3 days of Noggin at 50 ng/mL at stage 3, after stage 4): 64.6%
- CHGA+ (Endocrine) (PEC derived from hESC; [4]): 11.9%
- CHGA−/NKX6.1+ (Non-endocrine) (PEC derived from hESC; [4]): 82%
- CHGA+ (Endocrine) (PEC derived from hESC; [5]): 25.1%
- CHGA−/NKX6.1+ (Non-endocrine) (PEC derived from hESC; [5]): 71.9%
- CHGA+ (Endocrine) (PEC derived from hESC; [6]): 32.5%
- CHGA−/NKX6.1+ (Non-endocrine) (PEC derived from hESC; [6]): 64.6%
- production of cells committed to the endocrine lineage (CHGA+) (PEC derived from hESC; each additional day of noggin treatment at stage 3): increased levels of production of cells committed to the endocrine lineage (CHGA+)
- endocrine lineage marker expression (NKX2.2, INS) ([1]; each additional day of noggin treatment, after stage 4 (day 12)): increased levels of endocrine lineage marker expression

B2: Activin: TGFβ superfamily growth factor (protein, UniProt P08476 311-426, looked up)
Inhibin beta A chain: GLECDGKVNICCKKQFFVSFKDIGWNDWIIAPSGYHANYCEGECPSHIAGTSGSSLSFHSTVINHYRMRGHSPFANLKSCCVPTKLRPMSMLYYDDGQNIIKKDIQNMIVEECGCS
modifications: Inhibin beta A chain
notes: TGFβ superfamily growth factor
- CHGA+ (Endocrine) (PEC derived from hESC; [7]): 54.9%
- CHGA−/NKX6.1+/PDX1+ (Non-endocrine) (PEC derived from hESC; [7]): 38%
- CHGA−/NKX6.1−/PDX1+ (PDX ONLY) (PEC derived from hESC; [7]): 4.1%
- CHGA−/NKX6.1−/PDX1− (Residual or Triple Negative) (PEC derived from hESC; [7]): 2%
- CHGA+ (Endocrine) (PEC derived from hESC; [8]): 54.7%
- CHGA−/NKX6.1+/PDX1+ (Non-endocrine) (PEC derived from hESC; [8]): 31.7%
- CHGA−/NKX6.1−/PDX1+ (PDX ONLY) (PEC derived from hESC; [8]): 6.7%
- CHGA−/NKX6.1−/PDX1− (Residual or Triple Negative) (PEC derived from hESC; [8]): 5.4%
- CHGA+ (Endocrine) (PEC derived from hESC; [9]): 56.2%
- CHGA−/NKX6.1+/PDX1+ (Non-endocrine) (PEC derived from hESC; [9]): 33.7%
- CHGA−/NKX6.1−/PDX1+ (PDX ONLY) (PEC derived from hESC; [9]): 4.6%
- CHGA−/NKX6.1−/PDX1− (Residual or Triple Negative) (PEC derived from hESC; [9]): 3.9%
- NGN3 and NKX2.2 expression ([1]; 10 and 20 ng/mL at stage 3 with Heregulin, days 8, 10 and 12): capable of repressing NGN3 and NKX2.2
- NGN3, PDX1 and NKX6.1 gene expression in PEC ([1]; about 50 ng/mL, standard adherent differentiation): capable of suppressing NGN3 expression without suppressing PDX1 and NKX6.1 gene expression
- cell mass and yield of aggregates ([2]; 5 ng/mL and 10 ng/mL at stages 3 and 4): capable of maintaining cell mass and yield
- cell mass of aggregates ([2]; 50 ng/mL during stage 3, cell aggregate suspension culture): the overall cell mass drastically decreased
- Activin levels acceptable for maintaining cell mass and yield ([2]; stages 3 and 4, suspension culture): less than 25 ng/mL

B3: BMP: BMP4, member of the bone morphogenetic protein family (protein, UniProt P12644 293-408, looked up)
Bone morphogenetic protein 4: SPKHHSQRARKKNKNCRRHSLYVDFSDVGWNDWIVAPPGYQAFYCHGDCPFPLADHLNSTNHAIVQTLVNSVNSSIPKACCVPTELSAISMLYLDEYDKVVLKNYQEMVVEGCGCR
- Insulin and PDX1 expression ([3]; 10 ng/mL at stages 6 and 7 or stage 7 alone): simultaneously increase Insulin and PDX1 expression
- pancreatic-lineage gene expression ([3]; agent at days 30-35 during stage 7, analyzed at d35): increases expression of INS, PDX1 and IDI; also recorded: decreased GHRL expression
- ID1 gene expression ([3]; stages 6 and 7): up-regulate inhibitor-of-differentiation (ID) gene expression

From US10376545B2, “Methods for producing hormone secreting cells in a subject” (ViaCyte, Inc., priority 2013, dated 2019)
